Results as given in patent US20100260668A1 (published 2010).
Values belong to the binder of their own block, whether it stands above or below them.

Key:
[1] = biological target: T1, RON (MSP Receptor ECD-His tag) (UniProt Q04912 25-957, limits assumed); experiment: Direct Bind ELISA, antigen on plate; C-terminal VD
T1 construct: extracellular domain; Bought reagent
Description: (§1) Enzyme Linked Immunosorbent Assays to screen for antibodies that bind a desired target antigen were performed as follows. […] Plates were washed four times with PBS containing 0.02% Tween 20. Plates were blocked by the addition of 300 μL/well blocking solution (non-fat dry milk powder, various retail suppliers, diluted to 2% in PBS) for ½ hour at room temperature. Plates were washed four times after blocking with PBS containing 0.02% Tween 20.
(§2) Alternatively, one hundred microliters per well of 10 μg/ml of Histidine (His) tagged desired target antigen (R&D Systems, Minneapolis, Minn.) was added to ELISA plates coated with monoclonal mouse anti-polyHistidine antibody as described above and incubated for 1 hour at room temperature. Wells were washed four times with PBS containing 0.02% Tween 20.
(§3) One hundred microliters of antibody or DVD-Ig preparations diluted in blocking solution as described above was added to the desired target antigen plate or desired target antigen/FC fusion plate or the anti-polyHistidine antibody/His tagged desired target antigen plate prepared as described above and incubated for 1 hour at room temperature. Wells are washed four times with PBS containing 0.02% Tween 20.

HGF (HGF-His tag) [2] = biological target: T2, HGF (HGF-His tag) (UniProt P14210 32-728); experiment: Direct Bind ELISA, antigen on plate; N-terminal VD
T2 construct: Bought reagent
T2 sequence (P14210 32-728 limits assumed): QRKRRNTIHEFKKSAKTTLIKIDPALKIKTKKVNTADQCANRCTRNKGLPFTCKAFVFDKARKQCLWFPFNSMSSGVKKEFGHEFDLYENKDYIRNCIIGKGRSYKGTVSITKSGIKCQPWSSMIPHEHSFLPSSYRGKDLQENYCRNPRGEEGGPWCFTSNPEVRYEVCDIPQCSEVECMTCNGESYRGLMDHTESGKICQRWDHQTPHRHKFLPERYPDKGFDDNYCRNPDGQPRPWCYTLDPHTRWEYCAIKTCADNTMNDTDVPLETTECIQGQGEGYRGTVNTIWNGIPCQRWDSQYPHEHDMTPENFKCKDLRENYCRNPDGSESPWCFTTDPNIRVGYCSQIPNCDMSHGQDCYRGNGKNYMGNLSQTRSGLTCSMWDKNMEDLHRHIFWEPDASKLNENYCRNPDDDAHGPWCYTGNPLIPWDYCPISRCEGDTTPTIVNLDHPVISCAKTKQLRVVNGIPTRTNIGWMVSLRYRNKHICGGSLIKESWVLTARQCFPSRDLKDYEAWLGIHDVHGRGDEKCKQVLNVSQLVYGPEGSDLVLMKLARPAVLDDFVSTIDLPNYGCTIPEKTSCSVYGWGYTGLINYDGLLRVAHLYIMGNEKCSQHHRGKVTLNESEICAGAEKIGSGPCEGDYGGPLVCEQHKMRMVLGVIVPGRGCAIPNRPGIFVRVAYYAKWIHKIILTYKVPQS
Description: as §1, §2, §3

DLL4 (DLL4 ECD/His tag) [3] = biological target: T3, DLL4 (DLL4 ECD/His tag) (UniProt Q9NR61 27-529, limits assumed); experiment: Direct Bind ELISA, antigen on plate; N-terminal VD
T3 construct: extracellular domain; Bought reagent
Description: as §1, §2, §3

PlGF (Placental GF) = biological target: T4, PlGF (Placental GF) (UniProt P49763-2 21-149, limits assumed); experiment: Direct Bind ELISA, antigen on plate; C-terminal VD
T4 construct: Bought reagent
T4 sequence (looked up): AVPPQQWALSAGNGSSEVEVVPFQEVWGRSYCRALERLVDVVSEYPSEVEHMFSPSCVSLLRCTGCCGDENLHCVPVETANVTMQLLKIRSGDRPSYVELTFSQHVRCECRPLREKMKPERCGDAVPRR
Description: as §1, §2, §3

DLL4 (DLL4 ECD/His tag) [4] = biological target: T3, DLL4 (DLL4 ECD/His tag); experiment: Direct Bind ELISA, antigen on plate; C-terminal VD
Description: as §1, §2, §3

HGF (HGF-His tag) [5] = biological target: T2, HGF (HGF-His tag); experiment: Direct Bind ELISA, antigen on plate; C-terminal VD
Description: as §1, §2, §3

[6] = biological target: T1, RON (MSP Receptor ECD-His tag); experiment: Direct Bind ELISA, antigen on plate; N-terminal VD
Description: as §1, §2, §3

EC50 [1]: 116 nM
EC50 (HGF (HGF-His tag) [2]): 0.27 nM
B1: DVD034 (HGF (seq. 1) and RON (seq. 1) DVD-Ig) (bispecific antibody, IgG1)
VH: QVQLVESGGGLVKPGGSLRLSCAASGFTFSDYYMSWIRQAPGKGLEWVSYISSSGSTIYYADSVKGRFTISRDNAKNSLYLQMNSLRAEDTAVYYCARDEYNSGWYVLFDYWGQGTLVTVSSASTKGPEVQLVQSGGGLVKPGGSLRLSCAASGFTFSSYAMHWVRQAPGKGLEWVAVISYDGSNKYYADSVKGRFTISRDNSKNTLYLQMNSLRAEDTAVYYCARFSGWPNNYYYYGMDVWGQGTTVTVSS
VL: DIQMTQSPSSVSASVGDRVTITCRASQGISSWLAWYQQKPGKAPNLLIYEASSLQSGVPSRFGGSGSGTDFTLTISSLQPEDFATYYCQQANGFPWTFGQGTKVEIKRTVAAPDVVMTQSPLSLPVTPGEPASISCRSSQSLLHSNGFNYVDWYLQKPGQSPHLLIYFGSYRASGVPDRFSGSGSGTDFTLKISRVEAEDVGVYYCMQALQTPPWTFGQGTKVEIRR
notes: Outer AB012, inner AB005; HC vector V1 (wild-type hIgG1 constant), LC vector V2 (kappa constant); also called DVD034L

EC50 (DLL4 (DLL4 ECD/His tag) [3]): 0.53 nM
B2: DVD044 (DLL4 (seq. 1) and VEGF (seq. 1) DVD-Ig) (bispecific antibody, IgG1)
VH: EVQLVESGGGLVQPGGSLRLSCAASGFTFTDNWISWVRQAPGKGLEWVGYISPNSGFTYYADSVKGRFTISADTSKNTAYLQMNSLRAEDTAVYYCARDNFGGYFDYWGQGTLVTVSSASTKGPEVQLVESGGGLVQPGGSLRLSCAASGYTFTNYGMNWVRQAPGKGLEWVGWINTYTGEPTYAADFKRRFTFSLDTSKSTAYLQMNSLRAEDTAVYYCAKYPHYYGSSHWYFDVWGQGTLVTVSS
VL: DIQMTQSPSSLSASVGDRVTITCRASQDVSTAVAWYQQKPGKAPKLLIYSASFLYSGVPSRFSGSGSGTDFTLTISSLQPEDFATTYYCQQSYTGTVTFGQGTKVEIKRTVAAPDIQMTQSPSSLSASVGDRVTITCSASQDISNYLNWYQQKPGKAPKVLIYFTSSLHSGVPSRFSGSGSGTDFTLTISSLQPEDFATYYCQQYSTVPWTFGQGTKVEIKR
notes: HC vector V1 (wild-type hIgG1 constant), LC vector V2 (kappa constant); also called DVD044H; DVD044L

EC50 (PlGF (Placental GF)): 2 nM
EC50 (DLL4 (DLL4 ECD/His tag) [3]): 0.28 nM
B3: DVD257 (DLL-4 (seq. 1) and PLGF (seq. 1) DVD-Ig) (bispecific antibody, IgG1)
VH: EVQLVESGGGLVQPGGSLRLSCAASGFTFTDNWISWVRQAPGKGLEWVGYISPNSGFTYYADSVKGRFTISADTSKNTAYLQMNSLRAEDTAVYYCARDNFGGYFDYWGQGTLVTVSSASTKGPQVQLQQSGAELVKPGASVKISCKASGYTFTDYYINWVKLAPGQGLEWIGWIYPGSGNTKYNEKFKGKATLTIDTSSSTAYMQLSSLTSEDTAVYFCVRDSPFFDYWGQGTLLTVSS
VL: DIQMTQSPSSLSASVGDRVTITCRASQDVSTAVAWYQQKPGKAPKLLIYSASFLYSGVPSRFSGSGSGTDFTLTISSLQPEDFATTYYCQQSYTGTVTFGQGTKVEIKRTVAAPDIVLTQSPDSLAVSLGERVTMNCKSSQSLLNSGMRKSFLAWYQQKPGQSPKLLIYWASTRESGVPDRFTGSGSGTDFTLTISSVQAEDVAVYYCKQSYHLFTFGSGTKLEIKR
notes: Outer AB015, inner AB047; HC vector V1 (wild-type hIgG1 constant), LC vector V2 (kappa constant); also called 7H; VD257L

EC50 (HGF (HGF-His tag) [2]): 0.5 nM
B4: DVD046 (HGF (seq. 1) and VEGF (seq. 1) DVD-Ig) (bispecific antibody, IgG1)
VH: QVQLVESGGGLVKPGGSLRLSCAASGFTFSDYYMSWIRQAPGKGLEWVSYISSSGSTIYYADSVKGRFTISRDNAKNSLYLQMNSLRAEDTAVYYCARDEYNSGWYVLFDYWGQGTLVTVSSASTKGPEVQLVESGGGLVQPGGSLRLSCAASGYTFTNYGMNWVRQAPGKGLEWVGWINTYTGEPTYAADFKRRFTFSLDTSKSTAYLQMNSLRAEDTAVYYCAKYPHYYGSSHWYFDVWGQGTLVTVSS
VL: DIQMTQSPSSVSASVGDRVTITCRASQGISSWLAWYQQKPGKAPNLLIYEASSLQSGVPSRFGGSGSGTDFTLTISSLQPEDFATYYCQQANGFPWTFGQGTKVEIKRTVAAPDIQMTQSPSSLSASVGDRVTITCSASQDISNYLNWYQQKPGKAPKVLIYFTSSLHSGVPSRFSGSGSGTDFTLTISSLQPEDFATYYCQQYSTVPWTFGQGTKVEIKR
notes: HC vector V1 (wild-type hIgG1 constant), LC vector V2 (kappa constant); also called DVD046L

EC50 (DLL4 (DLL4 ECD/His tag) [4]): 2.12 nM
B5: DVD043 (VEGF (seq. 1) and DLL4 (seq. 1) DVD-Ig) (bispecific antibody, IgG1)
VH: EVQLVESGGGLVQPGGSLRLSCAASGYTFTNYGMNWVRQAPGKGLEWVGWINTYTGEPTYAADFKRRFTFSLDTSKSTAYLQMNSLRAEDTAVYYCAKYPHYYGSSHWYFDVWGQGTLVTVSSASTKGPEVQLVESGGGLVQPGGSLRLSCAASGFTFTDNWISWVRQAPGKGLEWVGYISPNSGFTYYADSVKGRFTISADTSKNTAYLQMNSLRAEDTAVYYCARDNFGGYFDYWGQGTLVTVSS
VL: DIQMTQSPSSLSASVGDRVTITCSASQDISNYLNWYQQKPGKAPKVLIYFTSSLHSGVPSRFSGSGSGTDFTLTISSLQPEDFATYYCQQYSTVPWTFGQGTKVEIKRTVAAPDIQMTQSPSSLSASVGDRVTITCRASQDVSTAVAWYQQKPGKAPKLLIYSASFLYSGVPSRFSGSGSGTDFTLTISSLQPEDFATTYYCQQSYTGTVTFGQGTKVEIKR
notes: HC vector V1 (wild-type hIgG1 constant), LC vector V2 (kappa constant); also called DVD043H; DVD043L

EC50 (HGF (HGF-His tag) [5]): 11.9 nM
EC50 [6]: 0.22 nM
B6: DVD033 (RON (seq. 1) and HGF (seq. 1) DVD-Ig) (bispecific antibody, IgG1)
VH: EVQLVQSGGGLVKPGGSLRLSCAASGFTFSSYAMHWVRQAPGKGLEWVAVISYDGSNKYYADSVKGRFTISRDNSKNTLYLQMNSLRAEDTAVYYCARFSGWPNNYYYYGMDVWGQGTTVTVSSASTKGPQVQLVESGGGLVKPGGSLRLSCAASGFTFSDYYMSWIRQAPGKGLEWVSYISSSGSTIYYADSVKGRFTISRDNAKNSLYLQMNSLRAEDTAVYYCARDEYNSGWYVLFDYWGQGTLVTVSS
VL: DVVMTQSPLSLPVTPGEPASISCRSSQSLLHSNGFNYVDWYLQKPGQSPHLLIYFGSYRASGVPDRFSGSGSGTDFTLKISRVEAEDVGVYYCMQALQTPPWTFGQGTKVEIRRTVAAPDIQMTQSPSSVSASVGDRVTITCRASQGISSWLAWYQQKPGKAPNLLIYEASSLQSGVPSRFGGSGSGTDFTLTISSLQPEDFATYYCQQANGFPWTFGQGTKVEIKR
notes: Outer AB005, inner AB012; HC vector V1 (wild-type hIgG1 constant), LC vector V2 (kappa constant); also called DVD033H; DVD033L

EC50 (PlGF (Placental GF)): 1.3 nM
B7: DVD259 (VEGF (seq. 1) and PLGF (seq. 1) DVD-Ig) (bispecific antibody, IgG1)
VH: EVQLVESGGGLVQPGGSLRLSCAASGYTFTNYGMNWVRQAPGKGLEWVGWINTYTGEPTYAADFKRRFTFSLDTSKSTAYLQMNSLRAEDTAVYYCAKYPHYYGSSHWYFDVWGQGTLVTVSSASTKGPQVQLQQSGAELVKPGASVKISCKASGYTFTDYYINWVKLAPGQGLEWIGWIYPGSGNTKYNEKFKGKATLTIDTSSSTAYMQLSSLTSEDTAVYFCVRDSPFFDYWGQGTLLTVSS
VL: DIQMTQSPSSLSASVGDRVTITCSASQDISNYLNWYQQKPGKAPKVLIYFTSSLHSGVPSRFSGSGSGTDFTLTISSLQPEDFATYYCQQYSTVPWTFGQGTKVEIKRTVAAPDIVLTQSPDSLAVSLGERVTMNCKSSQSLLNSGMRKSFLAWYQQKPGQSPKLLIYWASTRESGVPDRFTGSGSGTDFTLTISSVQAEDVAVYYCKQSYHLFTFGSGTKLEIKR
notes: HC vector V1 (wild-type hIgG1 constant), LC vector V2 (kappa constant); also called VD259H; VD259L

EC50 [1]: 94.8 nM
B8: DVD047 (VEGF (seq. 1) and RON (seq. 1) DVD-Ig) (bispecific antibody, IgG1)
VH: EVQLVESGGGLVQPGGSLRLSCAASGYTFTNYGMNWVRQAPGKGLEWVGWINTYTGEPTYAADFKRRFTFSLDTSKSTAYLQMNSLRAEDTAVYYCAKYPHYYGSSHWYFDVWGQGTLVTVSSASTKGPEVQLVQSGGGLVKPGGSLRLSCAASGFTFSSYAMHWVRQAPGKGLEWVAVISYDGSNKYYADSVKGRFTISRDNSKNTLYLQMNSLRAEDTAVYYCARFSGWPNNYYYYGMDVWGQGTTVTVSS
VL: DIQMTQSPSSLSASVGDRVTITCSASQDISNYLNWYQQKPGKAPKVLIYFTSSLHSGVPSRFSGSGSGTDFTLTISSLQPEDFATYYCQQYSTVPWTFGQGTKVEIKRTVAAPDVVMTQSPLSLPVTPGEPASISCRSSQSLLHSNGFNYVDWYLQKPGQSPHLLIYFGSYRASGVPDRFSGSGSGTDFTLKISRVEAEDVGVYYCMQALQTPPWTFGQGTKVEIRR
notes: HC vector V1 (wild-type hIgG1 constant), LC vector V2 (kappa constant); also called DVD047H; DVD047L
